Consider 8 molecules from publication PMC12612594, “Nuclear Magnetic Resonance‐based fragment screen of the E3 ligase Fem‐1 homolog B” (Protein Science : A Publication of the Protein Society, 2025).

The chains are these.
B1: FEM1B‐7: FEM1B construct, mutations L4E, L18E, L25S, L281E, R321D (protein, UniProt Q9UK73 1-627, looked up, variant L4E L18E L25S L281E R321D)
Protein fem-1 homolog B: MEGEAGYVYKAASEGKVETLAALLSNRSESDIRYLLGYVSQQGGQRSTPLIIAARNGHAKVVRLLLEHYRVQTQQTGTVRFDGYVIDGATALWCAAGAGHFEVVKLLVSHGANVNHTTVTNSTPLRAACFDGRLDIVKYLVENNANISIANKYDNTCLMIAAYKGHTDVVRYLLEQRADPNAKAHCGATALHFAAEAGHIDIVKELIKWRAAIVVNGHGMTPLKVAAESCKADVVELLLSHADCDRRSRIEALELLGASFANDRENYDIIKTYHYLYLAMEERFQDGDNILEKEVLPPIHAYGNRTECRNPQELESIRQDDDALHMEGLIVRERILGADNIDVSHPIIYRGAVYADNMEFEQCIKLWLHALHLRQKGNRNTHKDLLRFAQVFSQMIHLNETVKAPDIECVLRCSVLEIEQSMNRVKNISDADVHNAMDNYECNLYTFLYLVCISTKTQCSEEDQCKINKQIYNLIHLDPRTREGFTLLHLAVNSNTPVDDFHTNDVCSFPNALVTKLLLDCGAEVNAVDNEGNSALHIIVQYNRPISDFLTLHSIIISLVEAGAHTDMTNKQNKTPLDKSTTGVSEILLKTQMKMSLKCLAARAVRANDINYQDQIPRTLEEFVGFH
B2: FEM1B‐3: FEM1B construct, mutations L4E, L18E, L281E (protein, UniProt Q9UK73 1-627, looked up, variant L4E L18E L281E)
Protein fem-1 homolog B: MEGEAGYVYKAASEGKVETLAALLLNRSESDIRYLLGYVSQQGGQRSTPLIIAARNGHAKVVRLLLEHYRVQTQQTGTVRFDGYVIDGATALWCAAGAGHFEVVKLLVSHGANVNHTTVTNSTPLRAACFDGRLDIVKYLVENNANISIANKYDNTCLMIAAYKGHTDVVRYLLEQRADPNAKAHCGATALHFAAEAGHIDIVKELIKWRAAIVVNGHGMTPLKVAAESCKADVVELLLSHADCDRRSRIEALELLGASFANDRENYDIIKTYHYLYLAMEERFQDGDNILEKEVLPPIHAYGNRTECRNPQELESIRQDRDALHMEGLIVRERILGADNIDVSHPIIYRGAVYADNMEFEQCIKLWLHALHLRQKGNRNTHKDLLRFAQVFSQMIHLNETVKAPDIECVLRCSVLEIEQSMNRVKNISDADVHNAMDNYECNLYTFLYLVCISTKTQCSEEDQCKINKQIYNLIHLDPRTREGFTLLHLAVNSNTPVDDFHTNDVCSFPNALVTKLLLDCGAEVNAVDNEGNSALHIIVQYNRPISDFLTLHSIIISLVEAGAHTDMTNKQNKTPLDKSTTGVSEILLKTQMKMSLKCLAARAVRANDINYQDQIPRTLEEFVGFH
B3: FEM1B‐9: FEM1B construct, mutations L4E, A21E, L25S, L281E, R321D (protein, UniProt Q9UK73 1-627, looked up, variant L4E A21E L25S L281E R321D)
Protein fem-1 homolog B: MEGEAGYVYKAASEGKVLTLEALLSNRSESDIRYLLGYVSQQGGQRSTPLIIAARNGHAKVVRLLLEHYRVQTQQTGTVRFDGYVIDGATALWCAAGAGHFEVVKLLVSHGANVNHTTVTNSTPLRAACFDGRLDIVKYLVENNANISIANKYDNTCLMIAAYKGHTDVVRYLLEQRADPNAKAHCGATALHFAAEAGHIDIVKELIKWRAAIVVNGHGMTPLKVAAESCKADVVELLLSHADCDRRSRIEALELLGASFANDRENYDIIKTYHYLYLAMEERFQDGDNILEKEVLPPIHAYGNRTECRNPQELESIRQDDDALHMEGLIVRERILGADNIDVSHPIIYRGAVYADNMEFEQCIKLWLHALHLRQKGNRNTHKDLLRFAQVFSQMIHLNETVKAPDIECVLRCSVLEIEQSMNRVKNISDADVHNAMDNYECNLYTFLYLVCISTKTQCSEEDQCKINKQIYNLIHLDPRTREGFTLLHLAVNSNTPVDDFHTNDVCSFPNALVTKLLLDCGAEVNAVDNEGNSALHIIVQYNRPISDFLTLHSIIISLVEAGAHTDMTNKQNKTPLDKSTTGVSEILLKTQMKMSLKCLAARAVRANDINYQDQIPRTLEEFVGFH
B4: FEM1B‐8: FEM1B construct, mutations L4E, A21E, L25S, I270N, L281E (protein, UniProt Q9UK73 1-627, looked up, variant L4E A21E L25S I270N L281E)
Protein fem-1 homolog B: MEGEAGYVYKAASEGKVLTLEALLSNRSESDIRYLLGYVSQQGGQRSTPLIIAARNGHAKVVRLLLEHYRVQTQQTGTVRFDGYVIDGATALWCAAGAGHFEVVKLLVSHGANVNHTTVTNSTPLRAACFDGRLDIVKYLVENNANISIANKYDNTCLMIAAYKGHTDVVRYLLEQRADPNAKAHCGATALHFAAEAGHIDIVKELIKWRAAIVVNGHGMTPLKVAAESCKADVVELLLSHADCDRRSRIEALELLGASFANDRENYDINKTYHYLYLAMEERFQDGDNILEKEVLPPIHAYGNRTECRNPQELESIRQDRDALHMEGLIVRERILGADNIDVSHPIIYRGAVYADNMEFEQCIKLWLHALHLRQKGNRNTHKDLLRFAQVFSQMIHLNETVKAPDIECVLRCSVLEIEQSMNRVKNISDADVHNAMDNYECNLYTFLYLVCISTKTQCSEEDQCKINKQIYNLIHLDPRTREGFTLLHLAVNSNTPVDDFHTNDVCSFPNALVTKLLLDCGAEVNAVDNEGNSALHIIVQYNRPISDFLTLHSIIISLVEAGAHTDMTNKQNKTPLDKSTTGVSEILLKTQMKMSLKCLAARAVRANDINYQDQIPRTLEEFVGFH
B5: FEM1B‐4: FEM1B construct, mutations L4E, L18E, L281E, R321D (protein, UniProt Q9UK73 1-627, looked up, variant L4E L18E L281E R321D)
Protein fem-1 homolog B: MEGEAGYVYKAASEGKVETLAALLLNRSESDIRYLLGYVSQQGGQRSTPLIIAARNGHAKVVRLLLEHYRVQTQQTGTVRFDGYVIDGATALWCAAGAGHFEVVKLLVSHGANVNHTTVTNSTPLRAACFDGRLDIVKYLVENNANISIANKYDNTCLMIAAYKGHTDVVRYLLEQRADPNAKAHCGATALHFAAEAGHIDIVKELIKWRAAIVVNGHGMTPLKVAAESCKADVVELLLSHADCDRRSRIEALELLGASFANDRENYDIIKTYHYLYLAMEERFQDGDNILEKEVLPPIHAYGNRTECRNPQELESIRQDDDALHMEGLIVRERILGADNIDVSHPIIYRGAVYADNMEFEQCIKLWLHALHLRQKGNRNTHKDLLRFAQVFSQMIHLNETVKAPDIECVLRCSVLEIEQSMNRVKNISDADVHNAMDNYECNLYTFLYLVCISTKTQCSEEDQCKINKQIYNLIHLDPRTREGFTLLHLAVNSNTPVDDFHTNDVCSFPNALVTKLLLDCGAEVNAVDNEGNSALHIIVQYNRPISDFLTLHSIIISLVEAGAHTDMTNKQNKTPLDKSTTGVSEILLKTQMKMSLKCLAARAVRANDINYQDQIPRTLEEFVGFH
B6: FEM1B‐5: FEM1B construct, mutations L4E, A21E, L18E, L25S (protein, UniProt Q9UK73 1-627, looked up, variant L4E A21E L18E L25S)
Protein fem-1 homolog B: MEGEAGYVYKAASEGKVETLEALLSNRSESDIRYLLGYVSQQGGQRSTPLIIAARNGHAKVVRLLLEHYRVQTQQTGTVRFDGYVIDGATALWCAAGAGHFEVVKLLVSHGANVNHTTVTNSTPLRAACFDGRLDIVKYLVENNANISIANKYDNTCLMIAAYKGHTDVVRYLLEQRADPNAKAHCGATALHFAAEAGHIDIVKELIKWRAAIVVNGHGMTPLKVAAESCKADVVELLLSHADCDRRSRIEALELLGASFANDRENYDIIKTYHYLYLAMLERFQDGDNILEKEVLPPIHAYGNRTECRNPQELESIRQDRDALHMEGLIVRERILGADNIDVSHPIIYRGAVYADNMEFEQCIKLWLHALHLRQKGNRNTHKDLLRFAQVFSQMIHLNETVKAPDIECVLRCSVLEIEQSMNRVKNISDADVHNAMDNYECNLYTFLYLVCISTKTQCSEEDQCKINKQIYNLIHLDPRTREGFTLLHLAVNSNTPVDDFHTNDVCSFPNALVTKLLLDCGAEVNAVDNEGNSALHIIVQYNRPISDFLTLHSIIISLVEAGAHTDMTNKQNKTPLDKSTTGVSEILLKTQMKMSLKCLAARAVRANDINYQDQIPRTLEEFVGFH
B7: FEM1B‐10: FEM1B construct, mutations L4E, L18E, L24S, I270N, L281E (protein, UniProt Q9UK73 1-627, looked up, variant L4E L18E L24S I270N L281E)
Protein fem-1 homolog B: MEGEAGYVYKAASEGKVETLAALSLNRSESDIRYLLGYVSQQGGQRSTPLIIAARNGHAKVVRLLLEHYRVQTQQTGTVRFDGYVIDGATALWCAAGAGHFEVVKLLVSHGANVNHTTVTNSTPLRAACFDGRLDIVKYLVENNANISIANKYDNTCLMIAAYKGHTDVVRYLLEQRADPNAKAHCGATALHFAAEAGHIDIVKELIKWRAAIVVNGHGMTPLKVAAESCKADVVELLLSHADCDRRSRIEALELLGASFANDRENYDINKTYHYLYLAMEERFQDGDNILEKEVLPPIHAYGNRTECRNPQELESIRQDRDALHMEGLIVRERILGADNIDVSHPIIYRGAVYADNMEFEQCIKLWLHALHLRQKGNRNTHKDLLRFAQVFSQMIHLNETVKAPDIECVLRCSVLEIEQSMNRVKNISDADVHNAMDNYECNLYTFLYLVCISTKTQCSEEDQCKINKQIYNLIHLDPRTREGFTLLHLAVNSNTPVDDFHTNDVCSFPNALVTKLLLDCGAEVNAVDNEGNSALHIIVQYNRPISDFLTLHSIIISLVEAGAHTDMTNKQNKTPLDKSTTGVSEILLKTQMKMSLKCLAARAVRANDINYQDQIPRTLEEFVGFH
B8: FEM1B WT: substrate binding domain of FEM1B (residues 1–356), wild type (protein, UniProt Q9UK73 1-356, looked up, fragment)
chain: MEGLAGYVYKAASEGKVLTLAALLLNRSESDIRYLLGYVSQQGGQRSTPLIIAARNGHAKVVRLLLEHYRVQTQQTGTVRFDGYVIDGATALWCAAGAGHFEVVKLLVSHGANVNHTTVTNSTPLRAACFDGRLDIVKYLVENNANISIANKYDNTCLMIAAYKGHTDVVRYLLEQRADPNAKAHCGATALHFAAEAGHIDIVKELIKWRAAIVVNGHGMTPLKVAAESCKADVVELLLSHADCDRRSRIEALELLGASFANDRENYDIIKTYHYLYLAMLERFQDGDNILEKEVLPPIHAYGNRTECRNPQELESIRQDRDALHMEGLIVRERILGADNIDVSHPIIYRGAVYAD
modifications: substrate binding domain

Values joined by “and” are separate entries in the source; they are usually repeats but may differ in a detail not shown here. Equal values may be shown once.

This data set can be described thus: thermal shift assay of FEM1B constructs. The settings on record: average of three replicates. Format: physicochemical. The procedure:
The substrate binding domain of FEM1B (residues 1–356, ~42 kDa molecular weight) was prepared for NMR‐based screening. However, this construct (FEM1B WT) was prone to aggregation and was not suitable for the NMR experiments. […] To reduce the potential for aggregation, we prepared several mutants of FEM1B constructs and evaluated their stability using a thermal shift assay (Table 1).
As to B1, the “Tm ± SD” value was 28.7 ± 1.4 °C.
The figure for B2 is 35.0 ± 0.5 °C; for B3 it is 28.5 ± 1.3 °C; for B4 it is 34.5 ± 0.2 °C.
The figure for B5 is 35.0 ± 0.5 °C; for B6 it is 38.8 ± 0.3 °C.
The figure for B7 is 36.3 ± 0.1 °C; for B8 it is 35.6 °C and 35.6 ± 0.5 °C.
